According to paper PMC10720262 (Cell Reports, 2023):
Changes are numbered by the printed parent chain.

B1: Ky315 (antibody, V domains shown)
VH: QVQLVESGGGVVQPGRSLRLSCAASGFTLSNYGVHWVRQAPGTGLEWVALIWYDGSNKFYADSVKGRFTISRDNSMDIVYLQMNNLRAEDTALYYCVRPGIAAAGSNYYAMDVWGQGTAVTVSS
VL: EIVMTQSPATLSMSPGERATLSCRASQSVGSDLAWFQQKPGQAPRLLIYGAFTRATGIPARFSGSGSGSEFTLTISSLQSEDFAVYYCQQYNRWWTFGQGTKVEMK
notes: source: CHO-3E7, purified (MabSelect SuRe LX)
B2: Ky15.7 (antibody, V domains shown)
VH: QVQVVESGGGAVQPGRSLRLSCAASGFTFSNRGMHWVRQTPGKGLEWVAIIWYDGGNKFYADSVKGRFTISRDNSKNTLYLQMNSLRDEDTAVYYCVRAGDWKADKYTMDVWGQGTTVTVSS
VL: DIQMTQSPSTLSASVGDRVTITCRASQSISSWLAWYQQKPGKAPKVLIYQASSLESGVPSRFSGSGSGTEFTLTISSLQPDDFATYYCQQYNSYWTFGQGTKVEIK
notes: as for B1
B3: Ky15.10 (antibody, V domains shown)
VH: QVQLVESGGGVVQPGRSLRLSCAASGFTFSNSGMHWVRQVPGKGLEWVAIIWYDGSNKYYADSVKGRFSVSRDNSENTLYLQMSNLRAEDTAVYYCVRAYFDSENLYDYYGMDVWGQGTTVTVSS
VL: B2 VL with S31R, Y36F, Q38K, V46L, Q50T, S53N, N92Y, S93N, I105V
notes: as for B1
B4: Ky15.11 (antibody, V domains shown)
VH: QVQLVESGGGVVQPGRSLRLSCEASGFTFSNFGMHWVRQTPVKGLEWVAIIWFDGSYKYYTDSVKGRFTISRDNSKNTLYLQMNSLRAEDTAVYYCARARKGQRSDYYGSETSYTFDNWGQGTLVTVSS
VL: B2 VL with S30N, S31G, V46F, Q50K, S53I, V58I, N92S
notes: as for B1
B5: Ky224 (antibody, V domains shown)
VH: QVQLVESGGGVVQPGRSLRLSCAASGFTFSVYGMHWVRQAPGKGLEWVAVIWYDGSNKIYADSVKGRFTISRDNSKNTLYLQMDSLSAADTAVYYCAKIGSSSFDYWGQGTLVIVSS
VL: DIVMTQTPLSSPVTLGQPASISCRSSQSLVHSNGITYLSWLQQRPGQPPRLLLYEISNRFSGVPDRFSGSGTGTDFTLKISRVEAEDVGVYYCMQTTQFPITFGQGTRLEIK
notes: as for B1
B6: Ky230 (antibody, V domains shown)
VH: QVQLVESGGGVVQPGRSLRLSCAASGFTFSDYGMHWVRQAPGKGLEWVAIIWHDGSNKYYVDSVKGRFTISRDNSKNTLYLQMNSLRAEDTAVYYCARAASSFGSGFDYWGQGTLVTVSS
VL: DVVMTQSPLSLPVTLGQPASIFCRSSQSLVYSDGNTYLNWFQRRPGQSPRRLIYKVSDRDSGVPDRFSGSGSGTDFTLQISRVEAEDVGVYYCMQGTHWPPTFGQGTKVEIK
notes: as for B1
B7: Ky15.8 (antibody, V domains shown)
VH: QVQLVESGGNVVQPGRSLRLSCTASGFTFSSYGMHWVRQAPDKGLEWVAIIWYDGGNKFYADSVKGRFTISRDNSKDTLYLQMNSLRAEDTAVYYCAKAWYKIDDKYSMDVWGQGTTVTVSS
VL: not shown
notes: as for B1
B8: Ky15.1 (antibody, V domains shown)
VH: QVQLVESGGGVVQPGRSLRLSCAASGFTFSNFGMHWVRQTPDRGLEWVAIIWFDGSNTFYADSVKGRFTISRDNYKNTLYLQMNSLRAEDTAVYFCARSFYSDSAGSLFDYWGQGTLVTVSS
VL: DIQMTQSPSTLSASVGDRVTITCRASQSISSWVAWYQQKPGKAPKLLIYKASDLETGVPSRFSGSGSGTEFTLTISGLQPDDFVTYYCLQNMRYWTFGQGTKVEIK
notes: as for B1
B9: Ky311 (antibody, V domains shown)
VH: QMHLVESGGGVVQPGRSLRLSCVASGFTFNNHGMHWVRQAPGKGLEWVAVIWHDGSNKFYADSVNGRFIVSRDNSKNTLYLHMNSLRAEDTAVYYCARDFFVSGSYNYFDPWGQGTLVTVSS
VL: EIVLTQSPVTLSLSPGERATLSCRASQSVSNYLAWYQQKPGQAPRLLIYDAANRATGTPARFSGSGSGTDFTLTISSLEPEDFAVYFCQQRSKWFTFGPGTKLDIK
notes: as for B1
B10: CL-531325 (antibody, V domains shown)
VH: QVHLVESGGGVVQPGKSLRLSCAASGFTFSNFGMHWVRQAPGKGLEWVALIWYDGSHKFYADSVQGRFTISRDNSKNTLFLQMNSLRAEDTAIYYCAKVISYGSVNYYNNYKYTMDVWGQGTTVTVSS
VL: not shown
B11: CL-531286 (antibody, V domains shown)
VH: QVQLVESGGGLVQPGRSLRLSCAASGFTFSSSGMHWVRQAPGKGLEWVAVIWYDGSNKFYADSVKGRFTISRDNSKNTLYLQMNSLRAEDTAVYYCARSGYDILTGYFNFFDPWGQGTLVTVSS
VL: EIVLTQSPGTLSLSPGERATLSCRASQSVSSSHLAWYQQKPGQAPRLLIYGASSRATGIPDRFSGSGSGTDFTLTISRLEPEDFAVYYCHQYVSSFTFGPGTKVDFK
B12: CL-513809 (antibody, V domains shown)
VH: QVQLVESGGGVVQPGRSLRLSCAASGFIFSNYGMYWVRQTPDKGLEWVALIWYDGNNKFYSDSVKGRFTVSRDNSKNTLYLQMNSLRDEDTALYYCARAGYFYGSGSSLDKWGQGTLVTVSS
VL: B2 VL with T20S, S31I, V46L, Q50K
B13: CL-515284 (antibody, V domains shown)
VH: QVQLVGSGGGVVQSGRSLRLSCAASGFTFSNFGMHWVRQTPDKGLEWLAIIWYDGSHKFYVDSVKGRFTISRDNSMNTLFLQMNSLRAEDTGVYYCVRSWNYADSKYGMDVWGQGTTVTVSS
VL: B2 VL with K45N, V46L, Q50K, N92Y, S93N
B14: CL-532151 (antibody, V domains shown)
VH: QVQLVESGGGVVQPGGSLRLSCAASGFTFSGSGMHWVRHAPGKGLEWVAIIWYDGSNKFYADSVKGRFTISRDNSRNTLYLQMNSLRAEDTAVYYCARAYVSGNYGDKYGMDVWGQGTTVTVSS
VL: B2 VL with S31N, Y36F, V46L, Q50K, S76N, Y87F, S93Y
B15: CL-531912 (antibody, V domains shown)
VH: B14 VH with Q1L, G16R, G31S, H39Q, R76K, N104S, Y105H
VL: B2 VL with Y36F, V46L, Q50K, S76N, Y87F, S93N
B16: CL-532061 (antibody, V domains shown)
VH: QVQLVESGGGVVQPGRSLRLSCVASRFTFSNYGMHWVRQTPGKGLEWVAIIWYDGSNKFYGDSVKGRFTISRDNSRNTLYLQMNNLRAEDTAVYYCARAYDDFVDHDKYGMDVWGQGTTVTVSS
VL: B2 VL with T22S, S31I, P40S, V46L, Q50K, S53R
B17: CL-531383 (antibody, V domains shown)
VH: B10 VH with H3Q, K16R, N31S, A40T, G42V, Q65R, T69I, S101N, V105G
VL: B2 VL with Q50K, S93T
B18: CL-514174 (antibody, V domains shown)
VH: B14 VH with G16R, A23V, H39Q, A40S, K65Q, R76K, A88V, A92G, V101L
VL: B2 VL with Y36F, V46L, Q50K, S76N, Y87F, S93Y
B19: CL-514146 (antibody, V domains shown)
VH: B14 VH with G16R, A24V, G31N, H39Q, S56N, R76K, A92S, V93I, V101P
VL: B2 VL with Y36F, K42N, V46L, Q50K, S76N, Y94F
B20: CL-531969 (antibody, V domains shown)
VH: B14 VH with G16R, G31S, H39Q, K43M, R76K, K108N
VL: B2 VL with Y36F, V46L, Q50K, S76N, Y87F, S93Y
B21: CL-531237 (antibody, V domains shown)
VH: QVQLVESGGGVVQPGTSLRLSCVASGFTFSNFGIHWFRQAPGKGLEWVSLIWYDGKNKFYAESVTGRFTISRDNSKNTVYLQMSSLRAEDTAVYYCARSYYYDSGNYFDYWGQGTLVTVSS
VL: DIQMTQSPSSVSASVGDRITITCRASQGISSRLAWFQQKPGKAPNFLIYGTSSLQSGVPSRFSGSGSGTDFTLTISSLQPEDSATYYCQQANSYPWTFGQGTKVEIK
B22: CL-531271 (antibody, V domains shown)
VH: QVQLVESGGGEVQPGRSLRLSCAASGFTFSNYGMHWVRQAPGKGLEWVALIWYDGNNKFYADSVNGRFTISRDNSNNTLYLQMNSLRAEDTGVYYCARSFYYVSGNFFDYWGQGTLVTVSS
VL: DIPMTQSPSSVSASVGDRVTITCRASQGISTWLAWYQQKPGKAPKFLIYAASSLQSGVPSRFSGSGSGTDFTLTIYSLQPEDFATYYCQQGNSFPWTFGQGTKVEIK
B23: CL-515341 (antibody, V domains shown)
VH: QVYLVESGGGVVQPGKSLRLSCAASGFTFSNYGMHWVRQAPGKGLEWVAIIWHDGSNKFYSDSVRGRFTISRDNSQNTLYLQMNSLSAEDTALYFCAKDIGYSNTWDYFDYWGQGTLVTVSS
VL: EIVLTQSPATLSLSPGERATLSCRASQSVNSFLAWYQQKPGQAPRLLIYDASNRATDIPDRFSGSGSGTDFTLTIRSLEPEDFAVYFCQQRSKWFTFGGGTTVEMK
B24: CL-514716 (antibody, V domains shown)
VH: QIQLVESGGGVVQPGRSLRLSCAASGFTFSTYGMHWVRQAPGKGLEWVAVIWYDGSNKYYADSVQGRFTISRDNSKNTLYLQMNSLRAEDTAIYYCTTVGPIPFDYWGQGTLVTVSS
VL: DIVMTQTPLSSPVILGQPASISCRSSQSLVHSSGNTYLSWLQQRPGQPPRLLIYKTFKRLSGVPDRFSGSGAGTDFTLKISRVEAEDVGVYYCLQSTQFPLTFGGGTKVEIK

Biological target: T1, NANP6 peptide (Plasmodium falciparum NF54)
T1 construct: source: synthetic peptide (CPC Scientific)
Test: SPR; Carterra LSA; mAb amine-coupled to a CMD200M chip, peptide titrated in 2-fold steps up to 8 ug/mL without regeneration; 25 C; HBSTE (10 mM HEPES pH 7.4, 150 mM NaCl, 3 mM EDTA, 0.01% Tween 20); 1:1 Langmuir model; mean of triplicates; KD includes avidity for antigens with several repeats
Settings: both partners purified

| Binder | Kd |
| --- | --- |
| B1 | 0.0723 nM |
| B2 | 0.113 nM |
| B3 | 0.0153 nM |
| B4 | ≤ 0.0357 nM |
| B5 | 1.34 nM |
| B6 | 0.257 nM |
| B7 | ≤ 0.0312 nM |
| B8 | 0.0384 nM |
| B9 | ≤ 0.0233 nM |

Biological target: recombinant full-length PfCSP (Plasmodium falciparum circumsporozoite protein, strain NF54) (Plasmodium falciparum NF54, UniProt P19597)
Sequence (P19597 20-375): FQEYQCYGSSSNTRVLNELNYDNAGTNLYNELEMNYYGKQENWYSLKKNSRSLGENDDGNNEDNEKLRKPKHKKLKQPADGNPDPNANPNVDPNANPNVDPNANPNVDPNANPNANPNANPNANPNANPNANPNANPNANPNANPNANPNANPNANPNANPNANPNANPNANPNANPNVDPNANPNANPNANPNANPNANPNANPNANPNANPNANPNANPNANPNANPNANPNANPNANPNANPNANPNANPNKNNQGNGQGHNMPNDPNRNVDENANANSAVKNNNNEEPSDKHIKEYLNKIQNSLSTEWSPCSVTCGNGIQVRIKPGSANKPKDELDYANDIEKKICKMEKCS
Test: not given
Settings: not given

| Binder | binding result |
| --- | --- |
| B10 | binds |
| B11 | binds |
| B12 | binds |
| B13 | binds |
| B14 | binds |
| B15 | binds |
| B16 | binds |
| B17 | binds |
| B18 | binds |
| B19 | binds |
| B20 | binds |
| B21 | binds |
| B22 | binds |
| B23 | binds |
| B24 | binds |
